Reference: PMC3044157, “The Nuclear Guanine Nucleotide Exchange Factors Ect2 and Net1 Regulate RhoB-Mediated Cell Death after DNA Damage” (PLoS ONE, 2011)

B1: neuroepithelial transforming gene 1 (Net1) (natural protein, human (endogenous in MCF-7 and HeLa), UniProt Q7Z628 1-596, looked up)
chain: MEPELAAQKQPRPRRRSRRASGLSTEGATGPSADTSGSELDGRCSLRRGSSFTFLTPGPNWDFTLKRKRREKDDDVVSLSSLDLKEPSNKRVRPLARVTSLANLISPVRNGAVRRFGQTIQSFTLRGDHRSPASAQKFSSRSTVPTPAKRRSSALWSEMLDITMKESLTTREIRRQEAIYEMSRGEQDLIEDLKLARKAYHDPMLKLSIMSEEELTHIFGDLDSYIPLHEDLLTRIGEATKPDGTVEQIGHILVSWLPRLNAYRGYCSNQLAAKALLDQKKQDPRVQDFLQRCLESPFSRKLDLWSFLDIPRSRLVKYPLLLKEILKHTPKEHPDVQLLEDAILIIQGVLSDINLKKGESECQYYIDKLEYLDEKQRDPRIEASKVLLCHGELRSKSGHKLYIFLFQDILVLTRPVTRNERHSYQVYRQPIPVQELVLEDLQDGDVRMGGSFRGAFSNSEKAKNIFRIRFHDPSPAQSHTLQANDVFHKQQWFNCIRAAIAPFQSAGSPPELQGLPELHEECEGNHPSARKLTAQRRASTVSSVTQVEVDENAYRCGSGMQMAEDSKSLKTHQTQPGIRRARDKALSGGKRKETLV
notes: Net1, nuclear guanine nucleotide exchange factor, endogenous in human cancer cell lines, detected by immunoblot; source: endogenous, MCF-7 lysate; endogenous, HeLa lysate
B2: epithelial cell transforming sequence 2 (Ect2) (natural protein, human (endogenous in MCF-7 and HeLa), UniProt Q9H8V3 1-914, looked up)
chain: MAENSVLTSTTGRTSLADSSIFDSKVTEISKENLLIGSTSYVEEEMPQIETRVILVQEAGKQEELIKALKTIKIMEVPVIKIKESCPGKSDEKLIKSVINMDIKVGFVKMESVEEFEGLDSPEFENVFVVTDFQDSVFNDLYKADCRVIGPPVVLNCSQKGEPLPFSCRPLYCTSMMNLVLCFTGFRKKEELVRLVTLVHHMGGVIRKDFNSKVTHLVANCTQGEKFRVAVSLGTPIMKPEWIYKAWERRNEQDFYAAVDDFRNEFKVPPFQDCILSFLGFSDEEKTNMEEMTEMQGGKYLPLGDERCTHLVVEENIVKDLPFEPSKKLYVVKQEWFWGSIQMDARAGETMYLYEKANTPELKKSVSMLSLNTPNSNRKRRRLKETLAQLSRETDVSPFPPRKRPSAEHSLSIGSLLDISNTPESSINYGDTPKSCTKSSKSSTPVPSKQSARWQVAKELYQTESNYVNILATIIQLFQVPLEEEGQRGGPILAPEEIKTIFGSIPDIFDVHTKIKDDLEDLIVNWDESKSIGDIFLKYSKDLVKTYPPFVNFFEMSKETIIKCEKQKPRFHAFLKINQAKPECGRQSLVELLIRPVQRLPSVALLLNDLKKHTADENPDKSTLEKAIGSLKEVMTHINEDKRKTEAQKQIFDVVYEVDGCPANLLSSHRSLVQRVETISLGEHPCDRGEQVTLFLFNDCLEIARKRHKVIGTFRSPHGQTRPPASLKHIHLMPLSQIKKVLDIRETEDCHNAFALLVRPPTEQANVLLSFQMTSDELPKENWLKMLCRHVANTICKADAENLIYTADPESFEVNTKDMDSTLSRASRAIKKTSKKVTRAFSFSKTPKRALRRALMTSHGSVEGRSPSSNDKHVMSRLSSTSSLAGIPSPSLVSLPSFFERRSHTLSRSTTHLI
notes: Ect2, nuclear guanine nucleotide exchange factor, endogenous in human cancer cell lines, detected by immunoblot (sc-1005); source: endogenous, MCF-7 lysate; endogenous, HeLa lysate

Molecular target: T1, GST-RhoB(17A), nucleotide free RhoB mutant (UniProt P62745 1-196, G17A)
T1 construct: RhoB, small GTPase of the Rho family, with the nucleotide-free mutation G17A; also called nucleotide-free mutant of RhoB; nucleotide-free Rho mutants (G17A)
T1 sequence (P62745 whole entry G17A): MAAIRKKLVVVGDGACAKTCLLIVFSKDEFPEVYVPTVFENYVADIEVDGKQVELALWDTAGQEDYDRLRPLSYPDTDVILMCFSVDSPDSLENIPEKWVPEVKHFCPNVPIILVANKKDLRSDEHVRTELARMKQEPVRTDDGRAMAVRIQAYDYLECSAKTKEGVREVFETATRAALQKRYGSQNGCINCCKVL
Assay: pull-down; 20 ug purified GST-RhoB(17A) on glutathione-sepharose beads, incubated with clarified MCF-7 lysates for 60 min at 4 C; cells mock-treated or irradiated with 5 Gy (also 400 uM 5-FU for 72 h); immunoblot for the GEFs
Conditions: one partner purified

Binder | fold increase in binding after IR over mock-treated
B1 | ≥ 5 fold
B2 | ≥ 5 fold
